Here are results for 5 substances from article PMC10706272, “Improving the Thermostability of Thermomyces lanuginosus Lipase by Restricting the Flexibility of N-Terminus and C-Terminus Simultaneously via the 25-Loop Substitutions” (International Journal of Molecular Sciences, 2023).

This series concerns CCCCCCCCCCCCCCCC(=O)Oc1ccc([N+](=O)[O-])cc1. The experiment in a line: initial-rate hydrolysis of pNPP, p-nitrophenol release, Michaelis-Menten fit. The settings on record: 37 °C, pH 9.0, Tris-HCl 100 mM, apparent Km, pNPP 0.25-10 mM. The series is classed as biochemical, Thermomyces lanuginosus. From the text: initial-rate hydrolysis of pNPP, p-nitrophenol release, Michaelis-Menten fit on TLL (Thermomyces lanuginosus lipase)
For orientation: Km means the substrate concentration at which the rate is half of its maximum. As a reminder, the Vmax is the top rate of the reaction or transport when substrate is in excess. One may read the kcat as the maximal rate divided by the concentration of active sites. Broadly, the kcat/Km is the turnover number divided by the Michaelis constant. Consider “TLL (Thermomyces lanuginosus lipase) (Thermomyces lanuginosus; P51S)”, for which the Km came out at 290 ± 30 µM, the Vmax was found to be 668 µmol/min/mg, the kcat was determined as 1354 ± 9 s⁻¹ and the catalytic efficiency (kcat/Km) came out at 4.747e+06 ± 28000 M⁻¹ s⁻¹.
The matching figures for “TLL (Thermomyces lanuginosus lipase) (Thermomyces lanuginosus; D49R)”: 360 ± 10 µM, 828 µmol/min/mg, 1900 ± 21 s⁻¹ and 5.24e+06 ± 118000 M⁻¹ s⁻¹.
Consider “TLL (Thermomyces lanuginosus lipase) (Thermomyces lanuginosus; A52P)”, for which the Km was 240 ± 20 µM, the Vmax is 503 µmol/min/mg, the kcat came to 1036 ± 4 s⁻¹ and the kcat/Km came to 4.383e+06 ± 42000 M⁻¹ s⁻¹.
For “TLL (Thermomyces lanuginosus lipase) (Thermomyces lanuginosus; D49N)”, in that order: 220 ± 20 µM, 396 µmol/min/mg, 777 ± 5 s⁻¹ and 3.503e+06 ± 31000 M⁻¹ s⁻¹.
For “TLL (Thermomyces lanuginosus lipase) (Thermomyces lanuginosus; K46S)”, the Km was found to be 310 ± 20 µM, the Vmax was found to be 681 µmol/min/mg, the kcat turned out to be 1380 ± 22 s⁻¹ and the kcat/Km is 4.48e+06 ± 157000 M⁻¹ s⁻¹.
